The target in this experiment is recombinant gp120 from HIV-1 strain IIIB (HIV-1 strain IIIB) (UniProt P04578).

For the substance “griffithsin produced in Escherichia coli (^ECGRFT) (from UniProt P84801 1-121) (natural protein)”, the EC50 of whole-cell HIV neutralization assay (XTT viability of CEM-SS cells challenged with HIV-1RF), purified ^ECGRFT was 330 pM.

Take “griffithsin produced in rice endosperm (^OSGRFT), His6-tagged (from UniProt P84801 1-121) (natural protein)”: the EC50 of whole-cell HIV neutralization assay (XTT viability of CEM-SS cells challenged with HIV-1RF), purified ^OSGRFT stood at 270 pM.

Source of the values: article PMC4865440.
